B1: anti-C3d mouse/human chimeric antibody C8D3 (antibody, V domains shown)
VH: QAYLQQSGAELVRPGASVKMSCKASGYTFTSYYMHWVKQTPRQGLEWIGAIYPGNGDTSYNQKFKGKATLTVDKSSSTAYMQLSSLTSEDSAVYFCAKGFDYWGQGTTVTVSS
VL: DVVMTQTPLSLPVSLGDQASISCRSSQSLVYSNGNTYLHWYLQKPGQSPKLLIYKVSNRFSGVPDRFSGSGSGTDFTLKISRVEAEDLGVYFCSQSTHVPYTFGGGTKLEIKR
notes: also called chimeric C8D3; chimeric C8D3 mAb
B2: murine anti-C3d hybridoma clone C6 (antibody, V domains shown)
VH: QAYLQQSGAELVRPGASVKMSCKASGYTFTSYYMHWVKQTPRQGLEWIGAIYPGNGDTSYNQKFKGKATLTVDKSSSTAYMQLSSLTSEDSAVYFCAKYGSGYWGQGTTVTVSS
VL: B1 VL
notes: Murine IgG1, kappa
B3: anti-C3d Fab of chimeric antibody C8D3 (Fab, V domains shown)
VH: B1 VH
VL: B1 VL

The target of experiment [1] is T1, human complement protein C3d (human, UniProt P01024 1002-1303).
T1 construct: domain: C3d; The assay field of each row says which; also called C3d antigen; C3d protein
The experiment in a line: flow cytometry (MFI) on CLL cells taken 24 h after ofatumumab infusion (C3d-opsonised). A general note: Flow cytometry measures light scatter and fluorescence of single cells or particles in a stream.

Experiment [2] deals with T1, human complement protein C3d. The experiment in a line: avidity; antibody titration on C3d-opsonised CLL patient cells, 'OFA 24 h' sample (FIG. 9); apparent KD (avidity) on C3d-opsonized CLL cells, OFA 24 h sample.
For experiment [3] the target is unchanged. The experiment in a line: PEPperCHIP microarray of 15-aa C3d peptides. From the text: The epitopes on C3d were mapped using PEPperCHIP technology (PEPperPRINT GmbH, Heidelberg, Germany). In brief, 15 amino acid (aa) long peptides with 14 aa overlaps were synthesized based on the C3d aa sequence and immobilized in duplicate on microarray chips. […] The microarrays were read using the LI-COR Odyssey Imaging System and then analyzed using PepSlide® Analyzer software.

For experiment [4] the target is unchanged. The experiment in a line: surface plasmon resonance (Biacore 3000), C3d immobilised, Fab at 0.5, 2.5, 5, 25 and 50 nM.
In experiment [5] the target is B1. The experiment in a line: competition: C8D3 binding to C3d antigen (MFI) with increasing amounts of peptide.

One may read the EC50 (read off the curve) as the concentration at which the effect is half-maximal. Low values mean higher potency in that assay, high ones lower potency in that assay. For B1, in experiment [1], the “EC50 (read off the curve)” value was roughly 40 nM. In experiment [2], the Kd was determined as 6.7 nM.
Consider B2, for which the binding result in experiment [3] is listed as “binds”.
For the molecule B3, the Kd in experiment [4] amounted to 17 nM.
Turning to QYQKDAPDHQELNLDVSLQLPSR [epitope 3 derived peptide], in experiment [5], the binding result was “binds”.

The values are drawn from patent US20160333082A1 (US Dept. of Health and Human Services, published 2016).
